# Source: publication PMC5341072, “Activity screening of environmental metagenomic libraries reveals novel carboxylesterase families” (Scientific Reports, 2017)
# B1: MGS0169 (uncultured organism) (protein)
# chain: MAHAEGPALHPHEKLNNWGKWGDDDQRGAANYITPERIVAAARLIQTGKTFSLAIPIDSNGPVFPPRLPPHHTMEITGADYVADPGASPFGKSPIRFADDYIYMPLQGSTQWDALSHGWYGESLYNGVPEAAIRSSGAGGATKLGIENVKTSFLGRGVLVDIVRFKGGSLPEGYTITRADLEGALAKQKSKLLPGDILVIRTGLVESWYDLDPVGRASFFLNPMTGIGSDTVPWIHEQRLAGVAADNIALERVPHERAPELALPVHGNLLRDLGVYIGEIWWLEELAKDCAQDGRYEFFLAAQPLYIPGAVGSPLNPIAVK
# notes: N-terminal 6His tag (modified pET15b), E. coli BL21(DE3), Ni-NTA purified; predicted 37 kDa, tetramer; crystal construct 21-341 aa
# Tests used:
# Format in all cases: biochemical, uncultured organism
# [1] = substrate: O=C1Nc2ccccc2C1=O; assay: amidohydrolase activity, Michaelis-Menten or Hill fit; conditions: metal-dependent amidohydrolase activity
# Description: amidohydrolase activity, Michaelis-Menten or Hill fit on MGS0169
# [2] = substrate: CC(=O)Oc1ccc([N+](=O)[O-])cc1; assay: spectrophotometric ester hydrolysis, Michaelis-Menten or Hill fit; conditions: metal-dependent; 0.1 mM MnCl2 stated for the Figure 4 and 7 assays
# Description: (§1) spectrophotometric ester hydrolysis, Michaelis-Menten or Hill fit on MGS0169
# [3] = substrate: CC(=O)Oc1cccc2ccccc12; assay: as above; conditions: metal-dependent; 0.1 mM MnCl2 stated for the Figure 4 and 7 assays
# Description: as §1
# [4] = substrate: CCC(=O)Oc1cccc2ccccc12; assay: as above; conditions: metal-dependent; 0.1 mM MnCl2 stated for the Figure 4 and 7 assays
# Description: as §1
protein,measurement,setting,value
B1,Km,[1],19700 ± 4200 µM
same,kcat,[1],1.9 ± 0.2 s⁻¹
same,kcat/Km,[1],100 M⁻¹ s⁻¹
same,Km,[2],400 ± 290 µM
same,kcat,[2],71.2 ± 1.7 s⁻¹
same,kcat/Km,[2],180000 M⁻¹ s⁻¹
same,Km,[3],490 ± 110 µM
same,kcat,[3],14.9 ± 1.2 s⁻¹
same,kcat/Km,[3],30000 M⁻¹ s⁻¹
same,Km,[4],420 ± 120 µM
same,kcat,[4],14.7 ± 1.4 s⁻¹
same,kcat/Km,[4],40000 M⁻¹ s⁻¹
